# Results: US20260242735A1 (UNIVERSIT T BASEL, published 2026)
# What was measured:
# Test in all cases: flow cytometry, IgG on cells expressing the mutant
# [1] = target: human CD33 variant I47E (human, UniProt P20138 18-364)
# [2] = target: human CD33 variant I47R (human, UniProt P20138 18-364)
# [3] = target: human CD33 variant I47N (human, UniProt P20138 18-364)
# [4] = target: human CD33 variant P48T (human, UniProt P20138 18-364)
# [5] = target: human CD33 variant P48H (human, UniProt P20138 18-364)
# [6] = target: human CD33 variant P48L (human, UniProt P20138 18-364)
# [7] = target: human CD33 variant P48W (human, UniProt P20138 18-364)
# [8] = target: human CD33 variant P48D (human, UniProt P20138 18-364)
# [9] = target: human CD33 variant P48K (human, UniProt P20138 18-364)
# [10] = target: human CD33 variant P48G (human, UniProt P20138 18-364)
# [11] = target: human CD33 variant Y49P (human, UniProt P20138 18-364)
# [12] = target: human CD33 variant Y49Q (human, UniProt P20138 18-364)
# [13] = target: human CD33 variant Y49H (human, UniProt P20138 18-364)
# [14] = target: human CD33 variant Y49D (human, UniProt P20138 18-364)
# [15] = target: human CD33 variant Y49V (human, UniProt P20138 18-364)
# [16] = target: human CD33 variant Y49C (human, UniProt P20138 18-364)
# [17] = target: human CD33 variant Y49S (human, UniProt P20138 18-364)
# [18] = target: human CD33 variant Y49T (human, UniProt P20138 18-364)
# [19] = target: human CD33 variant Y50V (human, UniProt P20138 18-364)
# [20] = target: human CD33 variant Y50I (human, UniProt P20138 18-364)
# [21] = target: human CD33 variant Y50H (human, UniProt P20138 18-364)
# [22] = target: human CD33 variant Y50D (human, UniProt P20138 18-364)
# [23] = target: human CD33 variant Y50R (human, UniProt P20138 18-364)
# [24] = target: human CD33 variant Y50P (human, UniProt P20138 18-364)
# [25] = target: human CD33 variant D51Y (human, UniProt P20138 18-364)
# [26] = target: human CD33 variant K52S (human, UniProt P20138 18-364)
# [27] = target: human CD33 variant I47L (human, UniProt P20138 18-364)
# [28] = target: human CD33 variant K52Y (human, UniProt P20138 18-364)
# [29] = target: human CD33 variant K52H (human, UniProt P20138 18-364)
# [30] = target: human CD33 variant K52I (human, UniProt P20138 18-364)
# [31] = target: human CD33 variant M120V (human, UniProt P20138 18-364)
# [32] = target: human CD33 variant M120L (human, UniProt P20138 18-364)
# [33] = target: human CD33 variant R122S (human, UniProt P20138 18-364)
# [34] = target: human CD33 variant Y127H (human, UniProt P20138 18-364)
# [35] = target: human CD33 variant Y127E (human, UniProt P20138 18-364)
# [36] = target: human CD33 variant I47W (human, UniProt P20138 18-364)
# Chain of human CD33 variant P48L (P20138 18-364 P48L limits assumed): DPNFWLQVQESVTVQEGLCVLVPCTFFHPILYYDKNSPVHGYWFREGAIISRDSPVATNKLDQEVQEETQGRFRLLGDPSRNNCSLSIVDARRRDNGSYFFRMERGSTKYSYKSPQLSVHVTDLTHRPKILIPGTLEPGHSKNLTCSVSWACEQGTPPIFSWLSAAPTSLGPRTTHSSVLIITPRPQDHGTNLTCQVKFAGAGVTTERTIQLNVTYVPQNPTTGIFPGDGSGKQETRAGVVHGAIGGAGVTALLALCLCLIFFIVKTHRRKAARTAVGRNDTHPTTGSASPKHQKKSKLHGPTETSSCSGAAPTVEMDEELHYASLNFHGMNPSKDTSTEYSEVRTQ
# Chain of human CD33 variant Y50R (P20138 18-364 Y50R limits assumed): as the sequence (P20138 18-364 P48L limits assumed) above, with L31P, Y33R counted along it
# Chain of human CD33 variant Y50P (P20138 18-364 Y50P limits assumed): as the sequence (P20138 18-364 P48L limits assumed) above, with L31P, Y33P counted along it
# Chain of human CD33 variant I47R (P20138 18-364 I47R limits assumed): as the sequence (P20138 18-364 P48L limits assumed) above, with I30R, L31P counted along it
# Chain of human CD33 variant Y49S (P20138 18-364 Y49S limits assumed): as the sequence (P20138 18-364 P48L limits assumed) above, with L31P, Y32S counted along it
# Chain of human CD33 variant P48T (P20138 18-364 P48T limits assumed): as the sequence (P20138 18-364 P48L limits assumed) above, with L31T counted along it
# Chain of human CD33 variant R122S (P20138 18-364 R122S limits assumed): as the sequence (P20138 18-364 P48L limits assumed) above, with L31P, R105S counted along it
# Chain of human CD33 variant Y49C (P20138 18-364 Y49C limits assumed): as the sequence (P20138 18-364 P48L limits assumed) above, with L31P, Y32C counted along it
# Chain of human CD33 variant Y127E (P20138 18-364 Y127E limits assumed): as the sequence (P20138 18-364 P48L limits assumed) above, with L31P, Y110E counted along it
# Chain of human CD33 variant K52S (P20138 18-364 K52S limits assumed): as the sequence (P20138 18-364 P48L limits assumed) above, with L31P, K35S counted along it
# Chain of human CD33 variant Y50V (P20138 18-364 Y50V limits assumed): as the sequence (P20138 18-364 P48L limits assumed) above, with L31P, Y33V counted along it
# Chain of human CD33 variant I47E (P20138 18-364 I47E limits assumed): as the sequence (P20138 18-364 P48L limits assumed) above, with I30E, L31P counted along it
# Chain of human CD33 variant Y50I (P20138 18-364 Y50I limits assumed): as the sequence (P20138 18-364 P48L limits assumed) above, with L31P, Y33I counted along it
# Chain of human CD33 variant P48D (P20138 18-364 P48D limits assumed): as the sequence (P20138 18-364 P48L limits assumed) above, with L31D counted along it
binder,measurement,setting,value
"Refmab #3 (antibody, human IgG1, V domains shown, Tested in IgG format; human IgG1 Fc silent (PG-LALA)) VH: QVQLVQSGAEVKKPGSSVKVSCKASGYTFTDYNMHWVRQAPGQGLEWIGYIYPYNGGTGYNQKFKSKATITADESTNTAYMELSSLRSEDTAVYYCARGRPAMDYWGQGTLVTVSS VL: DIQMTQSPSSLSASVGDRVTITCRASESVDNYGISFMNWFQQKPGKAPKLLIYAASNQGSGVPSRFSGSGSGTDFTLTISSLQPDDFATYYCQQSKEVPWTFGQGTKVEIK",Mean % WT Binding,[1],109 % of WT
same,Mean % WT Binding,[2],83.2 % of WT
same,Mean % WT Binding,[3],91.6 % of WT
same,Mean % WT Binding,[4],102 % of WT
same,Mean % WT Binding,[5],87.6 % of WT
same,Mean % WT Binding,[6],111 % of WT
same,Mean % WT Binding,[7],96.4 % of WT
same,Mean % WT Binding,[8],100 % of WT
same,Mean % WT Binding,[9],67.3 % of WT
same,Mean % WT Binding,[10],108 % of WT
same,Mean % WT Binding,[11],92.1 % of WT
same,Mean % WT Binding,[12],102 % of WT
same,Mean % WT Binding,[13],92.1 % of WT
same,Mean % WT Binding,[14],94.4 % of WT
same,Mean % WT Binding,[15],106 % of WT
same,Mean % WT Binding,[16],59.2 % of WT
same,Mean % WT Binding,[17],107 % of WT
same,Mean % WT Binding,[18],96.5 % of WT
same,Mean % WT Binding,[19],108 % of WT
same,Mean % WT Binding,[20],92.8 % of WT
same,Mean % WT Binding,[21],111 % of WT
same,Mean % WT Binding,[22],100 % of WT
same,Mean % WT Binding,[23],83 % of WT
same,Mean % WT Binding,[24],103 % of WT
same,Mean % WT Binding,[25],87.2 % of WT
same,Mean % WT Binding,[26],96.8 % of WT
same,Mean % WT Binding,[27],102 % of WT
same,Mean % WT Binding,[28],41.7 % of WT
same,Mean % WT Binding,[29],101 % of WT
same,Mean % WT Binding,[30],88.7 % of WT
same,Mean % WT Binding,[31],51.1 % of WT
same,Mean % WT Binding,[32],90.8 % of WT
same,Mean % WT Binding,[33],111 % of WT
same,Mean % WT Binding,[34],75.4 % of WT
same,Mean % WT Binding,[35],21.5 % of WT
same,Mean % WT Binding,[36],112 % of WT
